Data on seven variants can be found in IntAct's records for PubMed 25232744.

B1: T-box brain protein 1 (Homo sapiens), Q16650 (parent)
chain: MQLEHCLSPSIMLSKKFLNVSSSYPHSGGSELVLHDHPIISTTDNLERSSPLKKITRGMTNQSDTDNFPDSKDSPGDVQRSKLSPVLDGVSELRHSFDGSAADRYLLSQSSQPQSAATAPSAMFPYPGQHGPAHPAFSIGSPSRYMAHHPVITNGAYNSLLSNSSPQGYPTAGYPYPQQYGHSYQGAPFYQFSSTQPGLVPGKAQVYLCNRPLWLKFHRHQTEMIITKQGRRMFPFLSFNISGLDPTAHYNIFVDVILADPNHWRFQGGKWVPCGKADTNVQGNRVYMHPDSPNTGAHWMRQEISFGKLKLTNNKGASNNNGQMVVLQSLHKYQPRLHVVEVNEDGTEDTSQPGRVQTFTFPETQFIAVTAYQNTDITQLKIDHNPFAKGFRDNYDTIYTGCDMDRLTPSPNDSPRSQIVPGARYAMAGSFLQDQFVSNYAKARFHPGAGAGPGPGTDRSVPHTNGLLSPQQAEDPGAPSPQRWFVTPANNRLDFAASAYDTATDFAGNAATLLSYAAAGVKALPLQAAGCTGRPLGYYADPSGWGARSPPQYCGTKSGSVLPCWPNSAAAAARMAGANPYLGEEAEGLAAERSPLPPGAAEDAKPKDLSDSSWIETPSSIKSIDSSDSGIYEQAKRRRISPADTPVSESSSPLKSEVLAQRDCEKNCAKDISGYYGFYSHS
B2: Forkhead box protein P2 (Homo sapiens), O15409-1 (parent)
chain: MMQESATETISNSSMNQNGMSTLSSQLDAGSRDGRSSGDTSSEVSTVELLHLQQQQALQAARQLLLQQQTSGLKSPKSSDKQRPLQVPVSVAMMTPQVITPQQMQQILQQQVLSPQQLQALLQQQQAVMLQQQQLQEFYKKQQEQLHLQLLQQQQQQQQQQQQQQQQQQQQQQQQQQQQQQQQQQQQQQQQHPGKQAKEQQQQQQQQQQLAAQQLVFQQQLLQMQQLQQQQHLLSLQRQGLISIPPGQAALPVQSLPQAGLSPAEIQQLWKEVTGVHSMEDNGIKHGGLDLTTNNSSSTTSSNTSKASPPITHHSIVNGQSSVLSARRDSSSHEETGASHTLYGHGVCKWPGCESICEDFGQFLKHLNNEHALDDRSTAQCRVQMQVVQQLEIQLSKERERLQAMMTHLHMRPSEPKPSPKPLNLVSSVTMSKNMLETSPQSLPQTPTTPTAPVTPITQGPSVITPASVPNVGAIRRRHSDKYNIPMSSEIAPNYEFYKNADVRPPFTYATLIRQAIMESSDRQLTLNEIYSWFTRTFAYFRRNAATWKNAVRHNLSLHKCFVRVENVKGAVWTVDEVEYQKRRSQKITGSPTLVKNIPTSLGYGAALNASLQAALAESSLPLLSNPGLINNASSGLLQAVHEDLNGSLDHIDSNGNSSPGCSPQPHIHSIHVKEEPVIAEDEDCPMSLVTTANHSPELEDDREIEEEPLSEDLE
partner: B1 chain

The variants in the first assay derive from B1. The settings on record: with FOXP2, O15409-1.
Take V356M: the “effect of a mutation on the interaction” value is recorded as “decreasing interaction strength”.

In the case of K228E, the “effect of a mutation on the interaction” value was “disrupting interaction strength”.

As to Q178E, the “effect of a mutation on the interaction” value is given as “decreasing interaction strength”.

With N374H, the “effect of a mutation on the interaction” value is on record as “disrupting interaction strength”.

With P542R, the “effect of a mutation on the interaction” value is on record as “decreasing interaction strength”.

In the case of Q418R, the “effect of a mutation on the interaction” value was “disrupting interaction strength”.

Variants of B2 are the subject of a further assay. The settings on record: with tbr1_human TBR1, Q16650.
With R553H, the “effect of a mutation on the interaction” value is “decreasing interaction strength”.
